From US20240376190A1 (Chugai, published 2024)
Substitutions are numbered along the chain they refer to. Values belong to the binder of their own block, whether it stands above or below them.

Tests used:
[1] = target: T1, FLAG-tagged human latent TGF-beta 1 (human, UniProt P01137 34-390); experiment: SPR (BIACORE), antibody captured on anti-human Fc, antigen as analyte, pH 7.4
T1 construct: Co-expressed with human furin, purified on anti-FLAG resin and by gel filtration; also called human latent TGF-beta 1 (SLC); hSLC

[2] = target: T2, FLAG-tagged mouse latent TGF-beta 1 (mouse, UniProt P04202 34-390); experiment: as above
T2 construct: Co-expressed with human furin; also called mouse latent TGF-beta 1 (SLC); mSLC

[3] = target: T1, FLAG-tagged human latent TGF-beta 1; experiment: SPR (BIACORE 8K), antibody captured on anti-human Fc, antigen as analyte, pH 5.8
[4] = target: T2, FLAG-tagged mouse latent TGF-beta 1; experiment: as above
[5] = target: T1, FLAG-tagged human latent TGF-beta 1; experiment: SPR (BIACORE 8K), antibody captured on anti-human Fc, antigen as analyte, pH 7.4
Experimental: (§1) A mouse anti-human Fc (GE Healthcare) was immobilized onto all flow cells of a CM5 sensor chip using amine coupling kit (GE Healthcare). Antibodies were captured onto the anti-human Fc sensor surfaces to around 20RU capture level, then recombinant latent TGF-beta 1 of human, cyno, and mouse was injected over the flow cell. All antibodies and analytes were prepared in ACES pH 7.4 containing 20 mM ACES, 150 mM NaCl, 0.05% Tween 20, 0.005% NaN₃. Sensor surface was regenerated each cycle with 3M MgCl₂.

[6] = target: T2, FLAG-tagged mouse latent TGF-beta 1; experiment: as above
Experimental: as §1

Cyno latent TGF-beta 1 [7] = target: T3, Cyno latent TGF-beta 1 (Cys at the 30th position substituted with Ser (C33S mutation)); experiment: SPR (BIACORE 8K), ratio calculated from FIGS. 5 and 6
T3 construct: The first reading lists it only inside the group m5; also called FLAG-tagged cynomolgus monkey latent TGF-beta 1; monkey latent TGF-beta 1 (SLC)
T3 sequence (latent TGF-beta 1 (LAP and mature TGF-beta 1), as listed by the source): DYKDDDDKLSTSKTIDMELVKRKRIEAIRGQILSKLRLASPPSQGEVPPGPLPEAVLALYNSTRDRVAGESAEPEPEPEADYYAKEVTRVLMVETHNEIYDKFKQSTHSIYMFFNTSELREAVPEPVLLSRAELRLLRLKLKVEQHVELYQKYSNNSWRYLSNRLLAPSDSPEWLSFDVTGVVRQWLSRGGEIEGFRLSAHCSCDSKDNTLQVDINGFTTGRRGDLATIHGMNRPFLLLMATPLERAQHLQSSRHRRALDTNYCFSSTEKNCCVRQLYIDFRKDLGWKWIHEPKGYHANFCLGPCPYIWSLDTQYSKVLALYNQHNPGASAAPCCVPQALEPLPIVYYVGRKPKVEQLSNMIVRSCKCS

[8] = target: T1, FLAG-tagged human latent TGF-beta 1; experiment: as above
[9] = target: T2, FLAG-tagged mouse latent TGF-beta 1; experiment: as above
Cyno latent TGF-beta 1 [10] = target: T3, Cyno latent TGF-beta 1; experiment: SPR (BIACORE 8K), antibody captured on anti-human Fc, antigen as analyte, pH 5.8
Cyno latent TGF-beta 1 [11] = target: T3, Cyno latent TGF-beta 1; experiment: SPR (BIACORE 8K), antibody captured on anti-human Fc, antigen as analyte, pH 7.4
Experimental: as §1

[12] = target: T4, human cell surface latent TGF-beta 1 expressed on FreeStyle 293-F cells (human, UniProt P01137 30-390); experiment: flow cytometry (FACS) on FreeStyle 293-F cells, PE anti-human IgG secondary
T4 construct: whole, on cells; also called human latent TGF-beta 1
Experimental: (§2) The anti-latent TGF-beta 1 antibodies (10 microgram/mL each) were incubated with each cell line for 30 minutes at 4 degree C. and washed with FACS buffer (2% PBS, 2 mM EDTA in PBS). […] Data acquisition was performed on an FACS Verse (Becton Dickinson), followed by analysis and calculation of Mean Fluorescence Intensity (MFI), using FlowJo (trademark) software (Tree Star) and GraphPad Prism software (GraphPad).

[13] = target: T5, mouse cell surface latent TGF-beta 1 expressed on Ba/F3 cells (mouse, UniProt P04202 30-390); experiment: flow cytometry (FACS) on BaF3 cells, PE anti-human IgG secondary
T5 construct: whole, on cells; also called mouse latent TGF-beta 1
Experimental: as §2

Kd [2]: 16.6 nM
B4: T0947H0053H0156-SG181/T0947L001L0049-SK1 (antibody, human IgG1, kappa, V domains shown)
VH: QVQLVESGGGVVQPGRSLRLSCAASGFTFSSEAMNWIRQPPGKGLEWIGYIYTSGTTYRANWARGRFTISRDNSKNTLYLQMNSLRAEDTAVYYCARGTHIYDHYYWVHHLWGQGTLVTVSS
VL: DIQMTQSPSSLSASVGDRVTITCQASQSISTYLAWYQQKPGQPPKLLIYAASTLESGVPSRFSGSGSGTDFTLTISSLQPEDFATYYCQSYSDGDSVGFGQGTKVEIKR
notes: Human IgG1; also called the pH dependent antibody; parent pH-dependent anti human latent TGF-beta 1 antibody

Kd [1]: 3.6 nM
koff [1]: 0.00124 s⁻¹
kon [1]: 344000 M⁻¹ s⁻¹
Kd [2]: 5.76 nM
koff [2]: 0.00376 s⁻¹
kon [2]: 653000 M⁻¹ s⁻¹
B5: hT0947AE22-SG181 (antibody, human IgG1, kappa, V domains shown)
VH: B4 VH with T28H, S31R, T99W, Y102F, D103G, Y105H, H109M, L111F
VL: B4 VL with G98I
notes: Human IgG1; Heavy chain = VH + CH, light chain = VL + CL

Kd [1]: 3.25 nM
koff [1]: 0.00108 s⁻¹
kon [1]: 333000 M⁻¹ s⁻¹
Kd [2]: 4.19 nM
koff [2]: 0.00187 s⁻¹
kon [2]: 445000 M⁻¹ s⁻¹
B7: hT0947AE23-SG181 (antibody, human IgG1, kappa, V domains shown)
VH: B4 VH with T28H, S31R, I101L, Y102F, D103G, Y105H, H109M, L111S
VL: B4 VL with S56Y, G98V
notes: as for B5

Kd [3]: 482 nM
Kd [4]: 803 nM
Kd [5]: 3.93 nM
Kd [6]: 5.43 nM
B10: hT0947AE27-SG191 (antibody, human IgG1, V domains shown)
VH: B4 VH with T28H, S31N, S54T, T99W, Y102F, D103G, Y105H, H109M, L111F
VL: B4 VL with S28R, L33V, G98I
notes: Human IgG1, SG191; also called hT0497AE27-SG191

Kd [3]: 222 nM
Kd [4]: 1570 nM
Kd [5]: 1.32 nM
Kd [6]: 3.61 nM
B11: hT0947AE37-SG191 (antibody, human IgG1, V domains shown)
VH: B4 VH with T28H, T53V, N61D, T99W, Y102F, D103G, Y105H, H109M, L111A
VL: B4 VL with Q27E, G98I
notes: Human IgG1, SG191; also called hT0497AE37-SG191

KD ratio pH5.8/pH7.4 (Cyno latent TGF-beta 1 [7]): 113
koff ratio pH5.8/pH7.4 (Cyno latent TGF-beta 1 [7]): 55.3
KD ratio pH5.8/pH7.4 [8]: 103
koff ratio pH5.8/pH7.4 [8]: 51.7
KD ratio pH5.8/pH7.4 [9]: 131
koff ratio pH5.8/pH7.4 [9]: 44.2
Kd (Cyno latent TGF-beta 1 [10]): 427 nM
koff (Cyno latent TGF-beta 1 [10]): 0.0553 s⁻¹
kon (Cyno latent TGF-beta 1 [10]): 129000 M⁻¹ s⁻¹
Kd [3]: 395 nM
koff [3]: 0.0538 s⁻¹
kon [3]: 136000 M⁻¹ s⁻¹
Kd [4]: 669 nM
koff [4]: 0.107 s⁻¹
kon [4]: 160000 M⁻¹ s⁻¹
Kd (Cyno latent TGF-beta 1 [11]): 3.78 nM
koff (Cyno latent TGF-beta 1 [11]): 0.001 s⁻¹
kon (Cyno latent TGF-beta 1 [11]): 266000 M⁻¹ s⁻¹
Kd [5]: 3.84 nM
koff [5]: 0.00104 s⁻¹
kon [5]: 271000 M⁻¹ s⁻¹
Kd [6]: 5.12 nM
koff [6]: 0.00242 s⁻¹
kon [6]: 472000 M⁻¹ s⁻¹
B12: hT0947AE20-SG191 (antibody, human IgG1)
heavy: QVQLVESGGGVVQPGRSLRLSCAASGFLFSREAMNWIRQPPGKGLEWIGYIYTSGTTYRANWARGRFTISRDNSKNTLYLQMNSLRAEDTAVYYCARGWHIFGHQYWVMHFWGQGTLVTVSSASTKGPSVFPLAPSSKSTSGGTAALGCLVKDYFPEPVTVSWNSGALTSGVHTFPAVLQSSGLYSLSSVVTVPSSSLGTQTYICNVNHKPSNTKVDKRVEPKSCDKTHTCPPCPAPELRRGPSVFLFPPKPKDTLMISRTPEVTCVVVDVSHEDPEVKFNWYVDGVEVHNAKTKPREEQYNSTYRVVSVLTVLHQDWLNGKEYKCKVSNKALPAPIEKTISKAKGQPREPQVYTLPPSREEMTKNQVSLTCLVKGFYPSDIAVEWESNGQPENNYKTTPPVLDSDGSFFLYSKLTVDKSRWQQGNVFSCSVLHEALHAHYTRKELSLSP
light: DIQMTQSPSSLSASVGDRVTITCQASQSISTYEAWYQQKPGQPPKLLIYAASTLESGVPSRFSGSGSGTDFTLTISSLQPEDFATYYCQSYSDGDSVIFGQGTKVEIKRTVAAPSVFIFPPSDEQLKSGTASVVCLLNNFYPREAKVQWKVDNALQSGNSQESVTEQDSKDSTYSLSSTLTLSKADYEKHKVYACEVTHQGLSSPVTKSFNRGEC
notes: Human IgG1, SG191; also called hT0497AE20-SG191

binding result [12]: no binding (tested: 10 microgram/mL)
binding result [13]: no binding (tested: 10 microgram/mL)
B13: Anti-KLH antibody IC17dK-SG181 (antibody, human IgG1, kappa, V domains shown)
VH: QVQLQQSGPQLVRPGASVKISCKASGYSFTSYWMHWVNQRPGQGLEWIGMIDPSYSETRLNQKFKDKATLTVDKSSSTAYMQLSSPTSEDSAVYYCALYGNYFDYWGQGTTLTVSS
VL: DIQMTQSSSSFSVSLGDRVTITCKASEDIYNRLAWYQQKPGNAPRLLISGATSLETGVPSRFSGSGSGKDYTLSITSLQTEDVATYYCQQYWSTPYTFGGGTKLEVKR
notes: Anti-KLH antibody with a human IgG1 Fc region, used as negative control; also called negative control antibody

The remaining lines, values behind:

B1: hT0947AE20-SG181 (antibody, human IgG1, kappa)
heavy: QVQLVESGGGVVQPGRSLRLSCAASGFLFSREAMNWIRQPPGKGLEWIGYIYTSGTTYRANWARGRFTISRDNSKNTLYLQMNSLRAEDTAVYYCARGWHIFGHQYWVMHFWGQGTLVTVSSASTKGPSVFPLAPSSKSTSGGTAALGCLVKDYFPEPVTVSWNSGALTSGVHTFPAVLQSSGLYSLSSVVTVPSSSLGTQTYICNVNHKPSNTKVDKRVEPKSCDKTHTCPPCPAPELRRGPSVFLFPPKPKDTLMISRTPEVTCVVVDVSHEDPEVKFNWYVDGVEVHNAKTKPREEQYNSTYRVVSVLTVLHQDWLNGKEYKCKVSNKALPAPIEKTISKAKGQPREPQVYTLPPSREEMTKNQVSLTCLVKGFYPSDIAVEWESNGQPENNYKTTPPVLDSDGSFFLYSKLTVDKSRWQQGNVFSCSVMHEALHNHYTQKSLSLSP
light: B12 light
notes: Human IgG1
Kd [1]: 2.95 nM
koff [1]: 0.00111 s⁻¹
kon [1]: 377000 M⁻¹ s⁻¹
Kd [2]: 4.39 nM
koff [2]: 0.00294 s⁻¹
kon [2]: 670000 M⁻¹ s⁻¹

B2: hT0947AE07-SG181 (antibody, human IgG1, kappa)
heavy: not shown
light: B12 light with E33L, I98G
notes: Human IgG1; Heavy chain = VH + CH, light chain = VL + CL; also called non-pH dependent anti-human latent TGF-beta 1 antibody
Kd [1]: 1.02 nM
Kd [2]: 1.04 nM

B3: hT0947AE24-SG181 (antibody, human IgG1, kappa, V domains shown)
VH: B4 VH with T28H, T99W, Y102F, D103G, Y105H, H109M, L111F
VL: B4 VL with S56W
notes: as for B5
Kd [1]: 2.55 nM
koff [1]: 0.001 s⁻¹
kon [1]: 393000 M⁻¹ s⁻¹
Kd [2]: 7.03 nM
koff [2]: 0.00441 s⁻¹
kon [2]: 627000 M⁻¹ s⁻¹

B6: hT0947AE34-SG191 (antibody, human IgG1, V domains shown)
VH: B4 VH with T28H, T99W, Y102F, Y105H, H109M, L111A
VL: B4 VL with S56Y, G98I
notes: Human IgG1, SG191; also called hT0497AE34-SG191
Kd [3]: 309 nM
Kd [4]: 346 nM
Kd [5]: 2.29 nM
Kd [6]: 3.67 nM

B8: hT0947AE26-SG181 (antibody, human IgG1, kappa, V domains shown)
VH: B4 VH with T28H, S31N, A60S, T99W, Y102F, D103G, Y105Q, H109M, L111F
VL: B4 VL with L33E, G98K
notes: as for B5
Kd [1]: 3.33 nM
koff [1]: 0.0012 s⁻¹
kon [1]: 361000 M⁻¹ s⁻¹
Kd [2]: 5.34 nM
koff [2]: 0.00864 s⁻¹
kon [2]: 1.62e+06 M⁻¹ s⁻¹

B9: hT0947AE25-SG181 (antibody, human IgG1, kappa, V domains shown)
VH: B4 VH with T28H, S31N, A60S, T99W, Y102F, D103G, Y105Q, H109M, L111F
VL: B4 VL with L33E
notes: as for B5
Kd [1]: 3.88 nM
koff [1]: 0.00152 s⁻¹
kon [1]: 391000 M⁻¹ s⁻¹
Kd [2]: 4.48 nM
koff [2]: 0.0353 s⁻¹
kon [2]: 7.89e+06 M⁻¹ s⁻¹
